Among the data in US20120316071A1 (published 2012) are ECL signal and ECL signal/noise ratio values, retold here.

For assay [1], the target named is T1, rHuman ErbB2/Fc Chimera, CF (R&D Systems Cat#1129-ER) (human, UniProt P04626 23-652).
T1 construct: Bought recombinant protein; also called human epidermal growth factor 2 receptor (ErbB2); Fc part of the bought chimera not given
As to the kind of experiment: Multispot ECL (MSD) assay, antigen spotted on plate, Fab at 1.56 µM; blank spot 4357.

The target in assay [2] is T2, rHuman CD44/Fc Chimera, CF (R&D Systems Cat#3660-CD) (human, UniProt P16070 21-220).
T2 construct: Bought recombinant protein; Fc part of the bought chimera not given
The assay is described as above.

In assay [3] the target is T3, Recombinant Human DLL4 (R&D Systems Cat#1506-D4/CF) (human, UniProt Q9NR61 27-524).
T3 construct: Bought recombinant protein; also called delta-like protein 4; rHuman DLL4
Described as above.

Assay [4] addresses T4, rHuman Notch-1/Fc Chimera, CF (R&D Systems Cat#3647-TK) (human, UniProt P46531 19-526).
T4 construct: Bought recombinant protein; Fc part of the bought chimera not given
The description is as above.

Assay [5] has as its target T5, rHuman Erythropoietin R/Fc Chimera, CF (R&D Systems Cat#963-ER) (human, UniProt P19235 25-250).
T5 construct: Bought recombinant protein; also called EPO R/Fc; Epo R; Fc part of the bought chimera not given
T5 sequence (looked up): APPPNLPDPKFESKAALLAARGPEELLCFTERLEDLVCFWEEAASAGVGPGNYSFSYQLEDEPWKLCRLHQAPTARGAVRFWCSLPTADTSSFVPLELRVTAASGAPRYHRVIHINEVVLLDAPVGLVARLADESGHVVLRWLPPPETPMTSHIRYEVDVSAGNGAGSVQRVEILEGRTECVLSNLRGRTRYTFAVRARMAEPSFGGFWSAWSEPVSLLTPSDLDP
The description is as above.

In assay [6] the target is T6, rHuman IGF-1 sR, (IGF-1 sR), CF (R&D Systems Cat#391-GR) (human, UniProt P08069 31-932).
T6 construct: Bought recombinant soluble receptor; also called insulin-like growth factor-1 soluble receptor
The description is as above.

Assay [7] deals with T7, rHuman HGF R/c-MET/Fc Chimera, CF (R&D Systems Cat#358-MT/CF) (human, UniProt P08581 25-932).
T7 construct: Bought recombinant protein; also called HGF R/Fc; hepatocyte growth factor receptor (HGF R/c-Met); Fc part of the bought chimera not given
Described as above.

Assay [8] concerns the target T8, rHuman P-Cadherin/Fc Chimera, CF (R&D Systems Cat#861-PC) (human, UniProt P22223 108-654).
T8 construct: Bought recombinant protein; Fc part of the bought chimera not given
The assay is described as above.

The target in assay [9] is T9, rHuman EGF R/Fc Chimera, CF (R&D Systems Cat#344-ER) (human, UniProt P00533 25-645).
T9 construct: Bought recombinant protein; also called epidermal growth factor receptor (EGF R); Fc part of the bought chimera not given
The assay is described as above.

For assay [10], the target named is T10, rHuman P-Cadherin/Fc Chimera, CF (R&D Systems Cat#861-PC) (human, UniProt P22223 108-654).
T10 construct: Bought recombinant protein; Fc part of the bought chimera not given
In words: ECL multispot (MSD) assay, spotted antigen; Fab 200.00 (head prints uM).

Assay [11] addresses T11, rHuman P-Cadherin/Fc Chimera, CF (R&D Systems Cat#861-PC) (human, UniProt P22223 108-654).
T11 construct: Bought from R&D Systems; not shown: Fc of the bought chimera
In words: MSD multispot ECL, antigen spotted on plate, Fab 176.3 nM; blank spot 346.

For assay [12], the target named is T12, Recombinant Human DLL4 (R&D Systems Cat#1506-D4/CF) (human, UniProt Q9NR61 27-524).
T12 construct: Bought from R&D Systems; also called rHuman DLL4; delta-like protein 4
The description is as above.

The target of assay [13] is T13, rHuman HGF R/c-MET/Fc Chimera, CF (R&D Systems Cat#358-MT/CF) (human, UniProt P08581 25-932).
T13 construct: Bought from R&D Systems; also called HGF R/Fc; hepatocyte growth factor receptor (HGF R/c-Met); not shown: Fc of the bought chimera
The description is as above.

The target of assay [14] is T14, rHuman Erythropoietin R/Fc Chimera, CF (R&D Systems Cat#963-ER) (human, UniProt P19235 25-250).
T14 construct: Bought from R&D Systems; also called EPO R/Fc; Epo R/Fc chimera; not shown: Fc of the bought chimera
T14 sequence (looked up): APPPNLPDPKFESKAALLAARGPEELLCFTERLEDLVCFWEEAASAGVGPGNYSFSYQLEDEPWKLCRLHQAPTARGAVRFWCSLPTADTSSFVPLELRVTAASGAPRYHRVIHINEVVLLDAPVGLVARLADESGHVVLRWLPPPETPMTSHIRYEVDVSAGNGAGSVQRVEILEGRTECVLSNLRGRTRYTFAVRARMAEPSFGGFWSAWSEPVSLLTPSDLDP
The description is as above.

Assay [15] addresses T15, rHuman CD44/Fc Chimera, CF (R&D Systems Cat#3660-CD) (human, UniProt P16070 21-220).
T15 construct: Bought from R&D Systems; not shown: Fc of the bought chimera
The description is as above.

The target in assay [16] is T16, rHuman EGF R/Fc Chimera, CF (R&D Systems Cat#344-ER) (human, UniProt P00533 25-645).
T16 construct: Bought from R&D Systems; also called epidermal growth factor receptor (EGF R); not shown: Fc of the bought chimera
Described as above.

The target in assay [17] is T17, rHuman IGF-1 sR, (IGF-1 sR), CF (R&D Systems Cat#391-GR) (human, UniProt P08069 31-932).
T17 construct: Bought from R&D Systems and called a soluble receptor; also called insulin-like growth factor-1 soluble receptor
Described as above.

B1: Fab VH1-46_IGHD7-27*01_IGHJ2*01 & L6_IGKJ1*01 (Fab, V domains shown)
VH: QVQLVQSGAEVKKPGASVKVSCKASGYTFTSYYMHWVRQAPGQGLEWMGIINPSGGSTSYAQKFQGRVTMTRDTSTSTVYMELSSLRSEDTAVYYCARANWGYWYFDLWGRGTLVTVSS
VL: not shown
notes: Germline Fab made in E. coli; VH was cloned in Plasmid A (CH1 constant region, His6 and Flag tags) and the kappa VL in Plasmid C (kappa CL); Only the variable domains are tied to this Fab by name
Consider B1, for which the ECL signal in assay [1] came to 7580; in assay [2] it was 7600; in assay [3], 10900; in [4], 9450; in assay [5], 9480; in assay [6], 6910. The values for the ECL signal in [7], in assay [8] and in [9] were 10300, 15000 and 7830, respectively.

B2: Fab VH5-51_IGHD5-18*01>3_IGHJ4*01 G100K/G104T & V3-4_IGLJ1*01 (Fab, V domains shown)
VH: EVQLVQSGAEVKKPGESLKISCKGSGYSFTSYWIGWVRQMPGKGLEWMGIIYPGDSDTRYSPSFQGQVTISADKSISTAYLQWSSLKASDTAMYYCARRKYSYTYDYFDYWGQGTLVTVSS
VL: QTVVTQEPSFSVSPGGTVTLTCGLSSGSVSTSYYPSWYQQTPGQAPRTLIYSTNTRSSGVPDRFSGSILGNKAALTITGAQADDESDYYCVLYMGSGISYVFGTGTKVTVL
notes: Tested as a Fab; The constant parts are the same as for the parent Fab (CH1 with His6/Flag tags, lambda CL); also called KT double mutant; H:KT
B2: the ECL signal/noise ratio in [10] turned out to be 2.

B3: Fab VH1-46_IGHD3-10*01_IGHJ4*01 & B3_IGKJ1*01 (Fab, V domains shown)
VH: QVQLVQSGAEVKKPGASVKVSCKASGYTFTSYYMHWVRQAPGQGLEWMGIINPSGGSTSYAQKFQGRVTMTRDTSTSTVYMELSSLRSEDTAVYYCAREYYYGSGSYYNDYFDYWGQGTLVTVSS
VL: not shown
notes: Tested as a Fab made in E. coli; VH was cloned into Plasmid A (CH1 constant region, His6 and Flag tags); The kappa VL was cloned into Plasmid C (kappa CL)
With B3, the ECL signal in [11] turned out to be 532; in [12] it was 460; in [13], 418; in assay [14] it was 3520; in assay [15], 376; in assay [16] it was 428. In [17], the ECL signal was determined as 393.
